Measured values: patent EP2778173A1 (dated 2014)

Target: T1, recombinant EF produced in our laboratory (Bacillus anthracis, UniProt P40136 34-800)
T1 sequence: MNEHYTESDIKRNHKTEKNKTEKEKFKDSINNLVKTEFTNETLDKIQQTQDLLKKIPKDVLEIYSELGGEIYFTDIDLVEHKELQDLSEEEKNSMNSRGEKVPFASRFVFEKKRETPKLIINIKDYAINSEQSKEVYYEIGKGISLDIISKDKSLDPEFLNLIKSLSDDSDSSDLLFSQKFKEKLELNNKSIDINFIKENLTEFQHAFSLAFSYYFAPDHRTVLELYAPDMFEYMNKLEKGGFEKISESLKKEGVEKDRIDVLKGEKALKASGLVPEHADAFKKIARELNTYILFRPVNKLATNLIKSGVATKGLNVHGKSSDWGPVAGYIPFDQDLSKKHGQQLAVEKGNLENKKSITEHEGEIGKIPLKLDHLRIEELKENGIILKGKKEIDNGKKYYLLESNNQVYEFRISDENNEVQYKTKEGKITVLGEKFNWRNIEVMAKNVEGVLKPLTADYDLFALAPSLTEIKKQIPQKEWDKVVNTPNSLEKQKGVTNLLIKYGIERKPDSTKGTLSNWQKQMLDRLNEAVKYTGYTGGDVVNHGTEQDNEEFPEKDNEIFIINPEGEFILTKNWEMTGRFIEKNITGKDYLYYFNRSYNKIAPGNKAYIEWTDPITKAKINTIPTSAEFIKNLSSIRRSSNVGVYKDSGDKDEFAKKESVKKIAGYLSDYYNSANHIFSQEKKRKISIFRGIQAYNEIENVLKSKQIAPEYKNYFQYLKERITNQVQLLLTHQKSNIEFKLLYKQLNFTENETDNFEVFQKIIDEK
Test: SPR (Biacore X), scFv 2LF on CM5 chip, Native EF in solution; Table 2

B1: scFv 2LF (scFv, V domains shown)
VH: QVQLVESGGGVVQPGRSLRLSCAASGFAFDSTAMHWVRQAPGKGLEWVAVISTGGSTYYADSVKGRFTISRDNSNNTLYLQMNSLRAEDTAVYYCAKAVRGYIGSRGPLDVWGQGTMVTVSS
VL: DIQMTQSPSSVSASVGDRVTITCRASQGISSWLAWYQQKPGKAPKLLIYKASSLQSGVPSRFSGSGSGTDFTLTISSLQPEDFATYYCQQYSTSPITFGGGTKVEIK
  koff: 0.00051 s⁻¹
